Ends that are not written are not given here. * marks the point of attachment. Biotin = O=C1N[C@H]2[C@H](CS[C@H]2CCCCC(=O)*)N1
Legend:
[1] = biological target: T1, recombinant human CK18 protein fragment B (rCK18fB) (human, UniProt P05783 1-238); assay: sandwich ECL assay, capture biotin-3C2 on streptavidin beads, detector TAG-C-04, in normal human serum
T1 construct: also called recombinant CK-18 fragment B protein
T1 sequence: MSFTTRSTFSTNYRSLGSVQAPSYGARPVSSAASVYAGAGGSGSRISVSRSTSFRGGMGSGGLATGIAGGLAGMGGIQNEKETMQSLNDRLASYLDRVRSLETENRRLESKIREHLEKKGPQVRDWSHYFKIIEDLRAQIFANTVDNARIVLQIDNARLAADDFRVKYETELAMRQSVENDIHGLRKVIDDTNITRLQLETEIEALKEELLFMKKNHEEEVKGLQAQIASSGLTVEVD
Protocol: A recombinant human CK18 protein fragment B (rCK18fB) was prepared using standard procedures. An immunoassay consisted of incubating 50 μL rCK18fB (0, 206, 617, 1852, 5557, 16667, 50,000 and 100,000 U/L) spiked into normal human serum with 50 μL of reaction mix consisting of biotinylated mAb 3C2/streptavidin coated paramagnetic beads and anti-CK18 TAG labeled antibody C-04 for 60 minutes at room temperature with shaking. The bead complex was washed twice, suspended in buffer and read on an ECL analyzer. The results shown in FIG. 6, a representative standard curve, indicate rCK18fB is detectable over a range of 0-100,000 U/L (1 U/L=1000 pg=0.037 pM).

[2] = biological target: T2, biotin conjugated CK18 peptide ^239APKSQDLAKI (A239-I248) (human, also: biotin conjugated); assay: ECL assay, hybridoma supernatant on biotin peptide on streptavidin beads
T2 peptide: APKSQDLAKI
Excerpt: (§1) Caspases 3 and 6 generated three CK18 protein fragments having the sequences M1-D238 (SEQ ID NO:4), A239-D397 and 5398-H430. A monoclonal antibody specific for the carboxy terminus of human caspase-cleaved cytokeratin CK18 protein fragment having amino acids M1-D238 (SEQ ID NO:4) was generated by immunizing mice with a short peptide sequence of ²²⁹[…] (SEQ ID NO:1) (designated as peptide P1 for the Examples). Mouse sera were screened for a positive response to peptide P1. Splenocytes from mice with a positive response were fused with myeloma cells and cell culture fluid from the resulting hybridomas screened against peptide P1. Supernatant from hybridoma cells producing antibody with a positive response to peptide P1 were further screened by an electrochemiluminescence (ECL) assay against biotin conjugated peptides ²³⁹[…] (SEQ ID NO:10), ²⁴⁰[…] (SEQ ID NO:11), ²²⁹[…] (SEQ ID NO:1) and ²²⁹[…] (SEQ ID NO:12), which were each bound to streptavidin coated paramagnetic beads. Peptides ²²⁹[…] (SEQ ID NO:1) and ²²⁹[…] (SEQ ID NO:12) represent the amino acid sequences A229-D238 and A229-V237 of cytokeratin 18 protein while peptides ²³⁹[…] (SEQ ID NO:10) and ²⁴⁰[…] (SEQ ID NO:11) represent the amino acid sequences A239-1248 and K240-1248 of cytokeratin 18.

[3] = biological target: T3, biotin conjugated CK18 peptide ^240PKSQDLAKI (human, also: biotin conjugated); assay: as above
T3 peptide: PKSQDLAKI
Excerpt: as §1

[4] = biological target: T4, human CK18 protein fragment M1-D238 from apoptotic SK-BR3 cells (human, UniProt P05783 1-238); assay: Western blot
T4 construct: Endogenous fragment in the supernatant or lysate of SK-BR-3 cells induced to become apoptotic; also called fragment B; caspase-cleaved CK18 fragment
T4 sequence: T1 sequence
Protocol: (§2) FIG. 4 is a photographic reproduction of a Western Blot Analysis using the mAb 3C2 (Lane 1, marker proteins; Lane 2, blank; Lane 3, 1 μg recombinant full length CK18 protein (rCK18); Lane 4, 12 μL of SK-BR3 apoptotic cell supernatant; Lane 5, 12 μL of SK-BR3 cell supernatant). Proteins were run in a 14% Tris/Glycine gel. The concentrations for the test material were 1 μg of rCK18 and 12 μL of SK-BR-3 apoptotic supernatant and SK-BR-3 Cell Lysate. The proteins were run at 150 V constant until the dye front reached the end of the gel. The proteins were then transferred to nitrocellulose. The nitrocellulose was blocked and probed with the 3C2 mAb at 1 μg/mL for 60 minutes. The membrane was washed three times and probed with a goat anti-mouse IgG ALK for 30 minutes. The membrane was washed three times and developed with using a WesternBreeze® kit from Invitrogen™ (Cat # WB7104).

[5] = biological target: T5, full length recombinant cytokeratin 18 protein (rCK18) (human, UniProt P05783 1-430); assay: Western blot
T5 construct: The exact recombinant construct, including any tags, is not described; also called recombinant full length CK18 protein; full-length (untreated) CK18
T5 sequence: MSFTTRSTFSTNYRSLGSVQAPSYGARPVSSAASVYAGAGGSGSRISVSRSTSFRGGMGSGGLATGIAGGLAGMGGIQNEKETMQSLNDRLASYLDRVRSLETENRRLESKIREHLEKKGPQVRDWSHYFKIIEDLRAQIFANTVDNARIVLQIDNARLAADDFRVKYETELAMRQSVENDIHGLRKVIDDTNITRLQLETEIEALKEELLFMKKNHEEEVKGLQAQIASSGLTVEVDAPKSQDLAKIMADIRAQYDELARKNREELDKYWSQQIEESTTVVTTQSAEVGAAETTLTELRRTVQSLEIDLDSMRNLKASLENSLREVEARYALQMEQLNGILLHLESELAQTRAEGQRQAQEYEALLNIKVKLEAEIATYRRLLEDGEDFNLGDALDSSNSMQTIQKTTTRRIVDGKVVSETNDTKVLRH
Protocol: as §2

[6] = biological target: T6, full length CK18 from a cell extract of SK-BR-3 cells (human, UniProt P05783 1-430); assay: Western blot
T6 construct: Endogenous CK18 of the human breast cancer cell line SK-BR-3, seen on a Western blot; also called SK-BR3 cell supernatant (lane 5)
T6 sequence: T5 sequence
Protocol: as §2

[7] = biological target: T7, biotin conjugated CK18 peptide ^388EDFNLGDALD (human); assay: immunoassay on biotin peptides on NeutrAvidin-coated 96-well plate
T7 peptide: Biotin-EDFNLGDALD
Protocol: (§3) The specificity of monoclonal antibody 3C2 was also assessed in an immunoassay against the peptides ²²⁹[…] (SEQ ID NO:1), ²²⁹[…] (SEQ ID NO:12) and ³⁸⁸[…] (SEQ ID NO:13) (each conjugated with biotin at their amino-terminus), which were added to a 96-well microplate coated with NeutrAvidin® by Invitrogen™. Human cytokeratin 18 protein fragment A239-D397 was also produced by the action of caspase 3 during cellular apoptosis and ends in the sequence ³⁹⁴DALD (SEQ ID NO:9). These peptides were incubated with mAb 3C2, M30 antibody (Enzo Life Sciences®, ALX-804-590) or other unrelated mAbs.

[8] = biological target: T8, biotin conjugated CK18 peptide ^229ASSGLTVEVD (A229-D238) (human); assay: as above
T8 construct: also called peptide P1
T8 peptide: Biotin-ASSGLTVEVD
Protocol: as §3

[9] = biological target: T9, biotin conjugated CK18 peptide ^229ASSGLTVEV (A229-V237) (human); assay: as above
T9 peptide: Biotin-ASSGLTVEV
Protocol: as §3

B1: monoclonal antibody 3C2 (antibody, V domains shown)
VH: DVQLVESGGGLVQPGGSRKLSCAASGFTFSSFGMHWVRQAPEKGLEWVAYINGGSTIIYYADTVKGRFTVSRDNPKNTLFLQMTSLRSDDTAMYFCVRRTPTAAGGAMDYWGQGTSVTVSS
VL: NIMVTQSPSSLAVSAGEKVTMTCKSSQSLFYSSNQKNYLAWFQQKPGQSPKLLIYWASTRESGVADRFTGSGYGTDFTLTISSVQAEDLAVYYCQQYLSSWTFGGGTKVEIK
notes: Mouse hybridoma monoclonal antibody, detected with goat anti-mouse IgG; also called mAb 3C2; anti-VEVD mAb
- binding result [1]: binds
- binding result [2]: no binding
- binding result [3]: no binding
- binding result [4]: binds
- binding result [5]: no binding (tested: 3C2 mAb at 1 µg/mL; 1 µg of rCK18)
- binding result [6]: no binding
- binding result [7]: no binding
- binding result [8]: binds
- binding result [9]: no binding
